Data published in publication PMC7615117, “DNSN-1 recruits GINS for CMG helicase assembly during DNA replication initiation in C. elegans” (Science (New York, N.Y.), 2023).
One block for each binder: values may come before it.

Legend:
Assay in all cases: cryo-EM structure; CMG (125 nM) with fork DNA, AMP-PNP, TIM-1/TIPN-1 and DNSN-1 isoform c (each 1.3-fold molar excess), GraFix gradient with glutaraldehyde and BS3
Details in all cases: both partners purified
[1] = target: T1, MCM-3 (C. elegans, UniProt Q9XVR7 1-812)
T1 construct: MCM-3, C. elegans; Subunit of m11, written alone for its contacts in the structure; also called MCM-3 subunit of MCM-2-7; source: S. cerevisiae, purified as part of recombinant CMG
T1 sequence: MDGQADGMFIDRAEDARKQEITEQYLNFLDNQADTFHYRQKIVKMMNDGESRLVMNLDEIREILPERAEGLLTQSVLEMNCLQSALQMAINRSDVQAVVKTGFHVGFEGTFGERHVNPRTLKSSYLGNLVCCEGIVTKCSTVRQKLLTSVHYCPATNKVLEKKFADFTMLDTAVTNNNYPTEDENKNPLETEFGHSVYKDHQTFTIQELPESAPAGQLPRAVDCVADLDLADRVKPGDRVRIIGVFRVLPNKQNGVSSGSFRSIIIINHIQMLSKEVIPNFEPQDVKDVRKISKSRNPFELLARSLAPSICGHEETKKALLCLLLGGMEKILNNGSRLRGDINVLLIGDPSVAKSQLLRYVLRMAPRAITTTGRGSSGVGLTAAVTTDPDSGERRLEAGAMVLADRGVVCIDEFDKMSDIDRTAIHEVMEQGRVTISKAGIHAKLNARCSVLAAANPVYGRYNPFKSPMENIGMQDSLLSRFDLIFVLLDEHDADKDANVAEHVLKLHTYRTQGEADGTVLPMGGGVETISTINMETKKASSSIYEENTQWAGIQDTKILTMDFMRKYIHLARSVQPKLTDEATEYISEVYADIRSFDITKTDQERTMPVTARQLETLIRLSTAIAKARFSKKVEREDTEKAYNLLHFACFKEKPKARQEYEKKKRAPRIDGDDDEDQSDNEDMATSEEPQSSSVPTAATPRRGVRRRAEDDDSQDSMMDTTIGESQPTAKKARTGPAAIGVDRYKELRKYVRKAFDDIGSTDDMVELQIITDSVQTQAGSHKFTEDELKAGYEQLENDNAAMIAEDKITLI

[2] = target: T2, MCM-4 (C. elegans, UniProt Q95XQ8 1-823)
T2 construct: MCM-4, C. elegans; Subunit of m11, written alone for its interfaces in the structure; source: S. cerevisiae, purified as part of recombinant CMG
T2 sequence: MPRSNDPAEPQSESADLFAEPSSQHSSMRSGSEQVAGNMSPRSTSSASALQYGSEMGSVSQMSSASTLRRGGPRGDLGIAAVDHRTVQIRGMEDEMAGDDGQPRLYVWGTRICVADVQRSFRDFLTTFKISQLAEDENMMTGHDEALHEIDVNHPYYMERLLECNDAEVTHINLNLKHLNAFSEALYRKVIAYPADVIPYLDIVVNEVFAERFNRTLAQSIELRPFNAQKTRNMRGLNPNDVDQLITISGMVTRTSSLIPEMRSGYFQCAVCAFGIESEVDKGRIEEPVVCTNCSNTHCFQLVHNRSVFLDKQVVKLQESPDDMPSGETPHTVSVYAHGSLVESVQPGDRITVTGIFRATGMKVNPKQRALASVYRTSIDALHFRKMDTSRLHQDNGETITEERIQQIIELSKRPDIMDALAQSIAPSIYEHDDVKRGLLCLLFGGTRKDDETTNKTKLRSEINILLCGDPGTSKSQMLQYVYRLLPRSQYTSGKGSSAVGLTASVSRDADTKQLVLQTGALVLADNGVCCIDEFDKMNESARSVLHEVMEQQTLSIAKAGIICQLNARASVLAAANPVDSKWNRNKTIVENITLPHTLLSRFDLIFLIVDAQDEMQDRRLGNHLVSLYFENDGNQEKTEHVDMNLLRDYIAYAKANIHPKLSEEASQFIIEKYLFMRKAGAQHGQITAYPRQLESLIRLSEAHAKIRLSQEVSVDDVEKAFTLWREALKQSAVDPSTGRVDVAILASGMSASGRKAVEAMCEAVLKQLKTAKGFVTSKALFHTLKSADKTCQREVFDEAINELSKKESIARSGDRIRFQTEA

[3] = target: T3, TIM-1 (C. elegans, UniProt G5EDN3 1-1353)
T3 construct: TIM-1, C. elegans; Chain of m13, written alone for its contacts in the structure; source: S. cerevisiae, purified as part of the TIM-1_TIPN-1 complex
T3 sequence: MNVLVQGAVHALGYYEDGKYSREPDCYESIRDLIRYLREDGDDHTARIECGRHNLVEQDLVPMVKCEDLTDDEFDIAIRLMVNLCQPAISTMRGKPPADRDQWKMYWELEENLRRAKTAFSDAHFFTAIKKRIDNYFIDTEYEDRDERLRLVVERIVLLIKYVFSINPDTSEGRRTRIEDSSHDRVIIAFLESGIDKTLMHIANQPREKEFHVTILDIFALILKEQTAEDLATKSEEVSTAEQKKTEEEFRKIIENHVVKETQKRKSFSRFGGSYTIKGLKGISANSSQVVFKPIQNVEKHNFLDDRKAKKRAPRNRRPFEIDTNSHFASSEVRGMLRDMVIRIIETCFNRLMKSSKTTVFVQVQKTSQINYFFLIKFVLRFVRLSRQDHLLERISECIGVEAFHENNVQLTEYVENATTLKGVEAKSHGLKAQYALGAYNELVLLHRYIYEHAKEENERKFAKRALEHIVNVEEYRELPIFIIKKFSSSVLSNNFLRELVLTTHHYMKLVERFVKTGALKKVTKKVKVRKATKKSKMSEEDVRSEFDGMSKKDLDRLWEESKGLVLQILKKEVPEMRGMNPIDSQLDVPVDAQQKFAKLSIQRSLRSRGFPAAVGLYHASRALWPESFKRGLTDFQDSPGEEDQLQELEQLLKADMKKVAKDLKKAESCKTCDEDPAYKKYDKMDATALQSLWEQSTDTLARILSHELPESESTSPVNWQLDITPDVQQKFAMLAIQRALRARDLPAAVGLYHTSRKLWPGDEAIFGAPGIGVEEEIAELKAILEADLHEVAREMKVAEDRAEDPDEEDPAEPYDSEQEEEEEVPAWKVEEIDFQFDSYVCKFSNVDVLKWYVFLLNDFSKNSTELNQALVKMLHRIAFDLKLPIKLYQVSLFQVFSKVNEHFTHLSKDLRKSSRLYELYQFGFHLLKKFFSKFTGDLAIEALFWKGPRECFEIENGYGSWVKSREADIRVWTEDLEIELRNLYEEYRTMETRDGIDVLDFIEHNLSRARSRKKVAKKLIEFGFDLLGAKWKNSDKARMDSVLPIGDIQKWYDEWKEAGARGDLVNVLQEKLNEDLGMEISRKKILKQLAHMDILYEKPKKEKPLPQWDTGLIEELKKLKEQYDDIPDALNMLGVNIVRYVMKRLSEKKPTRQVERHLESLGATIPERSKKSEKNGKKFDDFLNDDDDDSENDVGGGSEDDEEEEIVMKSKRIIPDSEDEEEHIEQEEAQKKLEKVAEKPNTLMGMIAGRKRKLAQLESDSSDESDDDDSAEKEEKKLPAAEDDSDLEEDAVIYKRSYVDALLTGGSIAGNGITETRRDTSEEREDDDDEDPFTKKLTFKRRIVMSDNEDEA

binding result [1]: binds
B1: MCM-5 (natural protein, C. elegans)
chain: MSNLDNPGIYYQERFFANDGVPDTGRELIAEYRQLITQFRNFIRDFSTGGFGMIYRDQLKRNYFSHEYRLEINLNHLKNFDEDIEMKLRKFPGKVLPALEEAAKIVADEITTPRPKGEEKLHDIQVTLTLDEYPTSLRQVKSAQVSQVVKISGIIVAAAQVRSKATKVTLQCRQCKHTIPDVSIKPGLEGFALPRTCAAPQQGQMQRCPIDPYIMLPDKCECVDYQTLKLQENPEDVPHGEMPRHLQLFTERYLTDKVVPGNRVTIVGVYSIKKLIQKKGGDKSLQGIRTPYLRVLGIHMETSGPGRTNFTTFTPEEERMFKTLAQRKDAYELIAKSIAPSIYGSADIKKSIACLLFGGARKKLPDGITRRGDINVLLLGDPGTAKSQLLKFVEQVSPIGVYTSGKGSSAAGLTASVIRDPQSRSFIMEGGAMVLADGGVVCIDEFDKMREDDRVAIHEAMEQQTISIAKAGITTTLNSRCSVLAAANSVYGRWDESRGDDNIDFMPTILSRFDMIYIVKDTHDVLKDATLAKHVIEVHVNASAAKERDIAGVPKTATTDSDGVMTMFDTDGFLTIEFLKKFVTYARLNCGPRLTPQASEKLVNHYVKMRNPVVNADAFKSGKKAHNSAIPITVRQLEAIVRIAESIAKMELQQFATDKHVEEALRLFRVSTIEAAATGNLAGVEGFTSTADQEALNRIEVQMKKRFAIGTHVSEHLIVQDFVARQHYRESLVKKVIDNLVRRGDLQQKMQRKMLYRVR
notes: MCM-5, C. elegans; Subunit of m11, written alone for its interface in the structure; source: S. cerevisiae, purified as part of recombinant CMG

binding result [2]: binds
B2: MCM-6 (natural protein, C. elegans)
chain: MDNIIGGQAQQVEDTDGTRVQNEFSKFLKSFKDQKNEFIYKSAMKELVQPEKNTIFINMQHLYKFSNNLATTIELQYYRVYPFMCEALHLATLDACDESERQQMFKKQLYVSLFNLDAKTKVRELSADKVGGLVRIAGQIVRTHPVHPELSRACFVCEDCGVTTRDVQQQFRYTQPTKCANPQCMNRTRFSLDVNSSTFVDFQKIRIQETQAELPRGSIPRTVDVIVRGEMVETVQPGDKCDIVGTLIVIPDIAQLSTPGLRAETSNQNRGRATDKSEGITGLKALGVRDLTYKMAFLACHIQQTESLVGGDASGAVEETDYLDLWSKMSTEDRATLKKMSDDKKIEKNIVDSLFPNIYGNHEVKLGVLLMLLGGVAKKSRDEGTSLRGDINVCLVGDPSTAKSQVLKAVEEFSPRAIYTSGKASSAAGLTAAVVKDEESFEFVIEAGALMLADNGVCCIDEFDKMDLKDQVAIHEAMEQQTISITKAGVKATLNARASILAAANPVNGRYDRSRPLKYNVQMSAPIMSRFDLFFVLVDECNEVTDYAIARRILDNHRAISEHTERDSVYKIDDIKKYIAFARCFKPKISDKAAETLVREYKKLRMSDSNNAATSSWRITVRQLESLVRLSEALARLHCGKEVLVEHVEKAAELLNKSIVRVEQPDIALDDDDFDNNIMVVEADKENQRGDDSMDHDGEKENAPKIDIAKLKISFKEYKQLSDVLVLHMRSDEDNQGEDEYDGVKQSALVEWYLSTIEADLETEEDFNVQKTICERVIHRLIHQDHVLLEVEQGEDPTLCVHPNYVIADE
notes: MCM-6, C. elegans; Subunit of m11, written alone for its interface in the structure; source: S. cerevisiae, purified as part of recombinant CMG

binding result [3]: binds
B3: MCM-2 (natural protein, C. elegans)
chain: MADRANNDDDVDRQPLPIADDADDDVDGIDEMFNNEDEDPEDEEGENLFGDDMERDYREQPELDQYSESGMDDASDVGSLSVSARRAAEREMAQRDQLLDDDALMYEDGDSEEVDTRRRGRGRRGRGDAADDDSVPMEEEDIPVDILENIRGRTIRDHVSDEAVAKEIERRFKNFLRSFHEPGNKQTKYIQMIKSMAADNRESLEVSFTDLSDDNGEQNISYFLPEAPNEMLAIMDRAATEVVMNMYPFYSRVCNEIKVRISQLPVEEDIRMLRQVHLNMLIRTAGVVTIASGILPQLAVVKYDCVACGYLLGPFVQQNDEEVRPTICPSCQGKGPFELNVENTVYHNYQRITMQESPNKVAAGRLPRSKDVILLGDLCDSCKPGDEIEVTGVYTNNFDGSLNYKQGFPVFNTLIHANHITNKDKMASDQLTDEDIKAIRELSQDPNISQRVFSSIAPSIYGHDDVKRAIALALFRGEAKNPGAKHRLRGDINVLLCGDPGTAKSQFLRYAAHIAPRSVLTTGQGASAVGLTAYVQRHPVTREWTLEAGAMVLADKGVCLIDEFDKMSDQDRTSIHEAMEQQSISISKAGIVTSLHARCTVIAASNPIGGRYNPTRTFAENVDLTEPILSRFDVLCVIRDSVDSVEDERLAKFVVGNHRTHHPDAKKIVKEGDELEEDQMDERTGVRLIPQDLLRKYIIYAREKCHPTLPEQHSEKFSNIFAQMRKESMATGSVAITVRHVESMIRLSEAHAKLHLRSYVNDEDCAAAIRVMLESFVNTQKASIMRMMKKTFSRHLTENRSANELLLFILKQLIRQQMHYATARAAAGTILQSVTIPESEFIEKAQQLRIENVKPFYTSEIFASNNFLYDPSKKTIVQEIF
notes: MCM-2, C. elegans; Subunit of m11, written alone for its contacts in the structure; source: S. cerevisiae, purified as part of recombinant CMG

binding result [3]: binds
B4: TIPN-1 (natural protein, C. elegans)
chain: MDEMEDFFENDELDREPSPMGDEAIEDNSGEGGTRRVVEPKLLRTKRLANPRLALNERILTGPKGISALRETLKDFKPNPKDDPYANLEKLMKKYAYWGHLMFPKMKTEDVLNRVETLGTRRQVKVFMIKHRLGETGEDSEHEEQENQKNGIIDDGASDNDDDLFKDLPEKEVTTEKAKNSEKSDQKTAEIDENVEEEYRMMEEERLREEQEAKEAADEDALMEDFGDMNNDW
notes: TIPN-1, C. elegans; Chain of m13, written alone; source: S. cerevisiae, purified as part of the TIM-1_TIPN-1 complex
